From patent US20120014911

T1: GST-IFNAR1 (wild type): bacterially expressed cytoplasmic domain of IFNAR1 fused with GST, P17181
T1 chain: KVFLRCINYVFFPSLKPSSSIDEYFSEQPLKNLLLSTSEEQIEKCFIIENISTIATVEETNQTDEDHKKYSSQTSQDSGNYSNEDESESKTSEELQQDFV


Target: T1, GST-IFNAR1 (wild type): bacterially …

Protein | in vitro phosphorylation of GST-IFNAR1 on Ser535 (immunoblot with anti-pS535) | immunokinase assay: phosphorylation of GST-IFNAR1 on Ser535
GST-tagged PKD1 (human) expressed in 293T cells (protein) MSAPPVLRPPSPLLPVAAAAAAAAAALVPGSGPGPAPFLAPVAAPVGGISFHLQIGLSREPVLLLQDSSGDYSLAHVREMACSIVDQKFPECGFYGMYDKILLFRHDPTSENILQLVKAASDIQEGDLIEVVLSASATFEDFQIRPHALFVHSYRAPAFCDHCGEMLWGLVRQGLKCEGCGLNYHKRCAFKIPNNCSGVRRRRLSNVSLTGVSTIRTSSAELSTSAPDEPLLQKSPSESFIGREKRSNSQSYIGRPIHLDKILMSKVKVPHTFVIHSYTRPTVCQYCKKLLKGLFRQGLQCKDCRFNCHKRCAPKVPNNCLGEVTINGDLLSPGAESDVVMEEGSDDNDSERNSGLMDDMEEAMVQDAEMAMAECQNDSGEMQDPDPDHEDANRTISPSTSNNIPLMRVVQSVKHTKRKSSTVMKEGWMVHYTSKDTLRKRHYWRLDSKCITLFQNDTGSRYYKEIPLSEILSLEPVKTSALIPNGANPHCFEITTANVVYYVGENVVNPSSPSPNNSVLTSGVGADVARMWEIAIQHALMPVIPKGSSVGTGTNLHRDISVSISVSNCQIQENVDISTVYQIFPDEVLGSGQFGIVYGGKHRKTGRDVAIKIIDKLRFPTKQESQLRNEVAILQNLHHPGVVNLECMFETPERVFVVMEKLHGDMLEMILSSEKGRLPEHITKFLITQILVALRHLHFKNIVHCDLKPENVLLASADPFPQVKLCDFGFARIIGEKSFRRSVVGTPAYLAPEVLRNKGYNRSLDMWSVGVIIYVSLSGTFPFNEDEDIHDQIQNAAFMYPPNPWKEISHEAIDLINNLLQVKMRKRYSVDKTLSHPWLQDYQTWLDLRELECKIGERYITHESDDLRWEKYAGEQGLQYPTHLINPSASHSDTPETEETEMKALGERVSIL | this outcome was not seen when either PKD1 or PKD3 were used as a source of kinase | –
GST-tagged PKD2 (human, wild type) expressed in 293T cells and purified with glutathione beads (protein) MATAPSYPAGLPGSPGPGSPPPPGGLELQSPPPLLPQIPAPGSGVSFHIQIGLTREFVLLPAASELAHVKQLACSIVDQKFPECGFYGLYDKILLFKHDPTSANLLQLVRSSGDIQEGDLVEVVLSASATFEDFQIRPHALTVHSYRAPAFCDHCGEMLFGLVRQGLKCDGCGLNYHKRCAFSIPNNCSGARKRRLSSTSLASGHSVRLGTSESLPCTAEELSRSTTELLPRRPPSSSSSSSASSYTGRPIELDKMLLSKVKVPHTFLIHSYTRPTVCQACKKLLKGLFRQGLQCKDCKFNCHKRCATRVPNDCLGEALINGDVPMEEATDFSEADKSALMDESEDSGVIPGSHSENALHASEEEEGEGGKAQSSLGYIPLMRVVQSVRHTTRKSSTTLREGWVVHYSNKDTLRKRHYWRLDCKCITLFQNNTTNRYYKEIPLSEILTVESAQNFSLVPPGTNPHCFEIVTANATYFVGEMPGGTPGGPSGQGAEAARGWETAIRQALMPVILQDAPSAPGHAPHRQASLSISVSNSQIQENVDIATVYQIFPDEVLGSGQFGVVYGGKHRKTGRDVAVKVIDKLRFPTKQESQLRNEVAILQSLRHPGIVNLECMFETPEKVFVVMEKLHGDMLEMILSSEKGRLPERLTKFLITQILVALRHLHFKNIVHCDLKPENVLLASADPFPQVKLCDFGFARIIGEKSFRRSVVGTPAYLAPEVLLNQGYNRSLDMWSVGVIMYVSLSGTFPFNEDEDINDQIQNAAFMYPASPWSHISAGAIDLINNLLQVKMRKRYSVDKSLSHPWLQEYQTWLDLRELEGKMGERYITHESDDARWEQFAAEHPLPGSGLPTDRDLGGACPPQDHDMQGLAERISVL | GST-tagged PKD2 expressed in 293T cells and purified by pull down with glutathione beads was capable of directly phosphorylating bacterially produced GST-IFNAR1 on Ser535 in vitro | –
Myc-tagged human CK1α immunopurified from 293T cells (protein) MASSSGSKAEFIVGGKYKLVRKIGSGSFGDIYLAINITNGEEVAVKLESQKARHPQLLYESKLYKILQGGVGIPHIRWYGQEKDYNVLVMDLLGPSLEDLFNFCSRRFTMKTVLMLADQMISRIEYVHTKNFIHRDIKPDNFLMGIGRHCNKLFLIDFGLAKKYRDNRTRQHIPYREDKNLTGTARYASINAHLGIEQSRRDDMESLGYVLMYFNRTSLPWQGLKAATKKQKYEKISEKKMSTPVEVLCKGFPAEFAMYLNYCRGLRFEEAPDYMYLRQLFRILFRTLNHQYDYTFDWTMLKQKAAQQAASSSGQGQQAQTPTGKQTDKTKSNMKGF | – | both immunopurified (FIG. 55C) and bacterially produced CK1α (FIG. 55E, lane 6) also phosphorylated GST4FNAR1 on Ser535 in vitro
GST-tagged PKD3 (human) expressed in 293T cells (protein) MSANNSPPSAQKSVLPTAIPAVLPAASPCSSPKTGLSARLSNGSFSAPSLTNSRGSVHTVSFLLQIGLTRESVTIEAQELSLSAVKDLVCSIVYQKFPECGFFGMYDKILLFRHDMNSENILQLITSADEIHEGDLVEVVLSALATVEDFQIRPHTLYVHSYKAPTFCDYCGEMLWGLVRQGLKCEGCGLNYHKRCAFKIPNNCSGVRKRRLSNVSLPGPGLSVPRPLQPEYVALPSEESHVHQEPSKRIPSWSGRPIWMEKMVMCRVKVPHTFAVHSYTRPTICQYCKRLLKGLFRQGMQCKDCKFNCHKRCASKVPRDCLGEVTFNGEPSSLGTDTDIPMDIDNNDINSDSSRGLDDTEEPSPPEDKMFFLDPSDLDVERDEEAVKTISPSTSNNIPLMRVVQSIKHTKRKSSTMVKEGWMVHYTSRDNLRKRHYWRLDSKCLTLFQNESGSKYYKEIPLSEILRISSPRDFTNISQGSNPHCFEIITDTMVYFVGENNGDSSHNPVLAATGVGLDVAQSWEKAIRQALMPVTPQASVCTSPGQGKDHKDLSTSISVSNCQIQENVDISTVYQIFADEVLGSGQFGIVYGGKHRKTGRDVAIKVIDKMRFPTKQESQLRNEVAILQNLHHPGIVNLECMFETPERVFVVMEKLHGDMLEMILSSEKSRLPERITKFMVTQILVALRNLHFKNIVHCDLKPENVLLASAEPFPQVKLCDFGFARIIGEKSFRRSVVGTPAYLAPEVLRSKGYNRSLDMWSVGVIIYVSLSGTFPFNEDEDINDQIQNAAFMYPPNPWREISGEAIDLINNLLQVKMRKRYSVDKSLSHPWLQDYQTWLDLREFETRIGERYITHESDDARWEIHAYTHNLVYPKHFIMAPNPDDMEEDP | this outcome was not seen when either PKD1 or PKD3 were used as a source of kinase | –
Myc-tagged human CK1ε immunopurified from 293T cells (protein) MELRVGNKYRLGRKIGSGSFGDIYLGANIASGEEVAIKLECVKTKHPQLHIESKFYKMMQGGVGIPSIKWCGAEGDYNVMVMELLGPSLEDLFNFCSRKFSLKTVLLLADQMISRIEYIHSKNFIHRDVKPDNFLMGLGKKGNLVYIIDFGLAKKYRDARTHQHIPYRENKNLTGTARYASINTHLGIEQSRRDDLESLGYVLMYFNLGSLPWQGLKAATKRQKYERISEKKMSTPIEVLCKGYPSEFSTYLNFCRSLRFDDKPDYSYLRQLFRNLFHRQGFSYDYVFDWNMLKFGAARNPEDVDRERREHEREERMGQLRGSATRALPPGPPTGATANRLRSAAEPVASTPASRIQPAGNTSPRAISRVDRERKVSMRLHRGAPANVSSSDLTGRQEVSRIPASQTSVPFDHLGK | – | immunopurified human CK18, CK1E, and protozoan parasite L-CK1 were active against IFNAR1S535 in the immunokinase assay in vitro
